Source: patent publication US20130036481A1

Target: α2β1 integrin on human cortical neurons (human) (UniProt P17301)
Test: cell-based or functional assay

Row | Substance | EC50 of domain V inhibition of Aβ toxicity in human cortical neurons, domain V alone (FIG. 4) | EC50 of domain V inhibition of Aβ toxicity in human cortical neurons, in the presence of a mouse IgG control or the α2 antibodies 1950 and 1998 | EC50 of domain V inhibition of Aβ toxicity in human cortical neurons, in the presence of the αV integrin antibody | EC50 of domain V inhibition of Aβ toxicity in human cortical neurons, in the presence of the β1 integrin antibody | average EC50 of domain V inhibition of Aβ40 toxicity in human cortical neurons (alamarBlue viability, n=5 experiments) | EC50 of LG3 inhibition of Aβ40 toxicity in human cortical neurons (alamarBlue viability)
1 | Human perlecan Domain V, recombinant, C-terminal 6xHis tag (from UniProt P98160 3687-4391) (ligand) | 123 nM | 98 nM | 47 nM | < 38 nM | 164 nM | 
2 | LG3 C-terminal domain of human perlecan Domain V (amino acids 4188-4391), C-terminal 6xHis tag (from UniProt P98160 4188-4391) (ligand) |  |  |  |  |  | 50 nM
